Source: publication PMC7026663
Each block holds one substance with its values, some of them ahead of it.

Key:
[1] = target: AtFKBP53 NTD (residues 1–112) (Arabidopsis thaliana) (UniProt Q93ZG9); assay: AUC
[2] = target: GST-tagged AtFKBP53 NTD (Arabidopsis thaliana)
[3] = target: nucleosome core particle (NCP); assay: AUC
[4] = target: nucleosome core particle (NCP); assay: ITC
[5] = target: nucleosome core particle (NCP); assay: native gel or EMSA

Sequence of AtFKBP53 NTD (residues 1–112) (Q93ZG9 1-112): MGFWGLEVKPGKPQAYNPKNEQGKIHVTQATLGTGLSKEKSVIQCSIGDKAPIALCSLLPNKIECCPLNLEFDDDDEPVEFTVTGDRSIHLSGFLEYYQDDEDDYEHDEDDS
Sequence of AtFKBP53 NTD (residues 1–112) (Arabidopsis thaliana) (Q93ZG9 1-112): as above
Sequence of GST-tagged AtFKBP53 NTD (domain or fragment) (Q93ZG9 whole entry, the tested form may be a part): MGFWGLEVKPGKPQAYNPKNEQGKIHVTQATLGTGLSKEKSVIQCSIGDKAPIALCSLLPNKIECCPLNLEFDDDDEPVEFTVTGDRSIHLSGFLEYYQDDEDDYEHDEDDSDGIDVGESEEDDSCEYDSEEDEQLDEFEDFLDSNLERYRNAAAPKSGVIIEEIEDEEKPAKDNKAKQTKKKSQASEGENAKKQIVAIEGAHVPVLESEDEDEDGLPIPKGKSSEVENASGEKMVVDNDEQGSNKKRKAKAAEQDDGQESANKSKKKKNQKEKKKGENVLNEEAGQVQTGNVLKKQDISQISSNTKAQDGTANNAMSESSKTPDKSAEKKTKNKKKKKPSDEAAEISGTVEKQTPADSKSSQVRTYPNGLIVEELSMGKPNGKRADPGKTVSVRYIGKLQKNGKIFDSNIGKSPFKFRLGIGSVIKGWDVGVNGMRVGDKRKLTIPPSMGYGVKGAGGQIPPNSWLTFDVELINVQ

stoichiometry N (H3/H4 tetramer per NTD pentamer) [1]: 1
Substance: H3/H4 tetramer (from UniProt P84233;P62799) (complex)

stoichiometry N [2]: 2
Substance: GST-tagged AtFKBP53 NTD (domain or fragment)

stoichiometry N (H2A/H2B dimer per NTD pentamer) [1]: 1
Substance: H2A/H2B dimer (from UniProt P06897;P02281) (complex)

stoichiometry N (NTD pentamers per NCP) [3]: 2 | Kd1 (first site, sequential binding model) [4]: 0.18 µM | Kd2 (second site, sequential binding model) [4]: 2.72 µM | stoichiometry N (binding sites on NCP) [4]: 2 | stoichiometry N (NTD pentamers per NCP) [5]: 2
Substance: AtFKBP53 NTD (residues 1–112) (from UniProt Q93ZG9 1-112) (domain or fragment)
